Reference: patent US20260042834A1 (HBM ALPHA THERAPEUTICS, published 2026)

T1: biotinylated CRH (human and mouse, not fully specified; biotinylated, position not stated)
T1 construct: also called Biotin-CRH; biotin-labeled CRH
T1 peptide: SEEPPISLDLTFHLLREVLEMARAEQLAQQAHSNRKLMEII


Biological target: T1, biotinylated CRH
Assay: Octet BLI, biotinylated CRH on SA sensor
Experimental: Octet® Red 96e was used for affinity measurement. Octet® running buffer was prepared by diluting kinetics buffer 10× (Fortebio, Cat #18-1105) in PBS according to the manufacturer's instructions. Two columns of SA sensors (Fortebio, Cat #18-5019) were hydrated in running buffer for 10 mins, one for ligand capturing and the other for reference. Antibodies were 2-fold diluted and added into a 96-well plate. […] After a 60-second baseline step, sensors were dipped into analyte and buffer wells successively, with the association and dissociation time of 180 seconds and 800 seconds, respectively. […] Signals of reference wells and reference sensors were subtracted by selecting “Double reference” before data fitting.

Binder	Kd	koff	kon
PR006143 (antibody, human IgG1, kappa, V domains shown, PTM-removal variant of PR004290) VH: EVQLVESGGVLVQPGGSLRLSCAASGFTFSSYWMTWVRQAPGKGLEWVANIKQEGSEKYYVDSVKGRFTISRDNAKNSLFLQMNSLRAEDTAVYYCARTLIFDYWGQGTLVTVSS VL: DIVMTQSPLSLPVTPGEPASISCRSSQSLLHSTGYHSLEWYLQKPGQSPQLLIYLGSNRASGVPDRFSGSGSGTDFTLKISRVEAEDVGIYYCMQTLQTPITFGQGTRLEIKR	0.0623 nM	2.85e-05 s⁻¹	457000 M⁻¹ s⁻¹
PR006148 (antibody, human IgG1, kappa, V domains shown, PTM-removal variant of PR004290) VH: EVQLVESGGVLVQPGGSLRLSCAASGFTFSSYWMTWVRQAPGKGLEWVANIKQDASEKYYVDSVKGRFTISRDNAKNSLFLQMNSLRAEDTAVYYCARTLIFDYWGQGTLVTVSS VL: DIVMTQSPLSLPVTPGEPASISCRSSQSLLHSTGYNPLEWYLQKPGQSPQLLIYLGSNRASGVPDRFSGSGSGTDFTLKISRVEAEDVGIYYCMQTLQTPITFGQGTRLEIKR	0.106 nM		
PR006145 (antibody, human IgG1, kappa, V domains shown, PTM-removal variant of PR004290) VH: EVQLVESGGVLVQPGGSLRLSCAASGFTFSSYWMTWVRQAPGKGLEWVANIKQEGSEKYYVDSVKGRFTISRDNAKNSLFLQMNSLRAEDTAVYYCARTLIFDYWGQGTLVTVSS VL: DIVMTQSPLSLPVTPGEPASISCRSSQSLLHSTGYSSLEWYLQKPGQSPQLLIYLGSNRASGVPDRFSGSGSGTDFTLKISRVEAEDVGIYYCMQTLQTPITFGQGTRLEIKR	0.305 nM	6.75e-05 s⁻¹	222000 M⁻¹ s⁻¹
PR006150 (antibody, human IgG1, kappa, V domains shown, PTM-removal variant of PR004290) VH: EVQLVESGGVLVQPGGSLRLSCAASGFTFSSYWMTWVRQAPGKGLEWVANIKQDSSEKYYVDSVKGRFTISRDNAKNSLFLQMNSLRAEDTAVYYCARTLIFDYWGQGTLVTVSS VL: DIVMTQSPLSLPVTPGEPASISCRSSQSLLHSTGYDSLEWYLQKPGQSPQLLIYLGSNRASGVPDRFSGSGSGTDFTLKISRVEAEDVGIYYCMQTLQTPITFGQGTRLEIKR	0.102 nM	5.66e-05 s⁻¹	555000 M⁻¹ s⁻¹
PR006144 (antibody, human IgG1, kappa, V domains shown, PTM-removal variant of PR004290) VH: EVQLVESGGVLVQPGGSLRLSCAASGFTFSSYWMTWVRQAPGKGLEWVANIKQEGSEKYYVDSVKGRFTISRDNAKNSLFLQMNSLRAEDTAVYYCARTLIFDYWGQGTLVTVSS VL: DIVMTQSPLSLPVTPGEPASISCRSSQSLLHSTGYNPLEWYLQKPGQSPQLLIYLGSNRASGVPDRFSGSGSGTDFTLKISRVEAEDVGIYYCMQTLQTPITFGQGTRLEIKR	0.0895 nM	4.47e-05 s⁻¹	499000 M⁻¹ s⁻¹
PR006146 (antibody, human IgG1, kappa, V domains shown, PTM-removal variant of PR004290) VH: EVQLVESGGVLVQPGGSLRLSCAASGFTFSSYWMTWVRQAPGKGLEWVANIKQDASEKYYVDSVKGRFTISRDNAKNSLFLQMNSLRAEDTAVYYCARTLIFDYWGQGTLVTVSS VL: DIVMTQSPLSLPVTPGEPASISCRSSQSLLHSTGYDSLEWYLQKPGQSPQLLIYLGSNRASGVPDRFSGSGSGTDFTLKISRVEAEDVGIYYCMQTLQTPITFGQGTRLEIKR	0.109 nM	4.84e-05 s⁻¹	445000 M⁻¹ s⁻¹
PR005658 (antibody, human IgG1, kappa, V domains shown, PTM-removal variant of PR004290) VH: EVQLVESGGVLVQPGGSLRLSCAASGFTFSSYWMTWVRQAPGKGLEWVANIKQDGSEKYYVDSVKGRFTISRDNAKNSLFLQMNSLRAEDTAVYYCARTLIFDYWGQGTLVTVSS VL: DIVMTQSPLSLPVTPGEPASISCRSSQSLLHSTGYQSLEWYLQKPGQSPQLLIYLGSNRASGVPDRFSGSGSGTDFTLKISRVEAEDVGIYYCMQTLQTPITFGQGTRLEIKR	0.179 nM	9.11e-05 s⁻¹	509000 M⁻¹ s⁻¹

Further binders by falling Kd, results first:

Kd	koff	kon	Binder
0.209 nM	8.27e-05 s⁻¹	396000 M⁻¹ s⁻¹	PR005662 (antibody, human IgG1, kappa, V domains shown, PTM-removal variant of PR004290) VH: EVQLVESGGVLVQPGGSLRLSCAASGFTFSSYWMTWVRQAPGKGLEWVANIKQDASEKYYVDSVKGRFTISRDNAKNSLFLQMNSLRAEDTAVYYCARTLIFDYWGQGTLVTVSS VL: DIVMTQSPLSLPVTPGEPASISCRSSQSLLHSTGYQSLEWYLQKPGQSPQLLIYLGSNRASGVPDRFSGSGSGTDFTLKISRVEAEDVGIYYCMQTLQTPITFGQGTRLEIKR
0.16 nM	8e-05 s⁻¹	500000 M⁻¹ s⁻¹	PR006151 (antibody, human IgG1, kappa, V domains shown, PTM-removal variant of PR004290) VH: EVQLVESGGVLVQPGGSLRLSCAASGFTFSSYWMTWVRQAPGKGLEWVANIKQDSSEKYYVDSVKGRFTISRDNAKNSLFLQMNSLRAEDTAVYYCARTLIFDYWGQGTLVTVSS VL: DIVMTQSPLSLPVTPGEPASISCRSSQSLLHSTGYHSLEWYLQKPGQSPQLLIYLGSNRASGVPDRFSGSGSGTDFTLKISRVEAEDVGIYYCMQTLQTPITFGQGTRLEIKR
0.16 nM	7.78e-05 s⁻¹	487000 M⁻¹ s⁻¹	PR006149 (antibody, human IgG1, kappa, V domains shown, PTM-removal variant of PR004290) VH: EVQLVESGGVLVQPGGSLRLSCAASGFTFSSYWMTWVRQAPGKGLEWVANIKQDASEKYYVDSVKGRFTISRDNAKNSLFLQMNSLRAEDTAVYYCARTLIFDYWGQGTLVTVSS VL: DIVMTQSPLSLPVTPGEPASISCRSSQSLLHSTGYSSLEWYLQKPGQSPQLLIYLGSNRASGVPDRFSGSGSGTDFTLKISRVEAEDVGIYYCMQTLQTPITFGQGTRLEIKR
0.142 nM	6.96e-05 s⁻¹	489000 M⁻¹ s⁻¹	PR006147 (antibody, human IgG1, kappa, V domains shown, PTM-removal variant of PR004290) VH: EVQLVESGGVLVQPGGSLRLSCAASGFTFSSYWMTWVRQAPGKGLEWVANIKQDASEKYYVDSVKGRFTISRDNAKNSLFLQMNSLRAEDTAVYYCARTLIFDYWGQGTLVTVSS VL: DIVMTQSPLSLPVTPGEPASISCRSSQSLLHSTGYHSLEWYLQKPGQSPQLLIYLGSNRASGVPDRFSGSGSGTDFTLKISRVEAEDVGIYYCMQTLQTPITFGQGTRLEIKR
0.123 nM	4.08e-05 s⁻¹	333000 M⁻¹ s⁻¹	PR006142 (antibody, human IgG1, kappa, V domains shown, PTM-removal variant of PR004290) VH: EVQLVESGGVLVQPGGSLRLSCAASGFTFSSYWMTWVRQAPGKGLEWVANIKQEGSEKYYVDSVKGRFTISRDNAKNSLFLQMNSLRAEDTAVYYCARTLIFDYWGQGTLVTVSS VL: DIVMTQSPLSLPVTPGEPASISCRSSQSLLHSTGYDSLEWYLQKPGQSPQLLIYLGSNRASGVPDRFSGSGSGTDFTLKISRVEAEDVGIYYCMQTLQTPITFGQGTRLEIKR
0.0913 nM			PR005657 (antibody, human IgG1, kappa, V domains shown, PTM-removal variant of PR004290) VH: EVQLVESGGVLVQPGGSLRLSCAASGFTFSSYWMTWVRQAPGKGLEWVANIKQDASEKYYVDSVKGRFTISRDNAKNSLFLQMNSLRAEDTAVYYCARTLIFDYWGQGTLVTVSS VL: DIVMTQSPLSLPVTPGEPASISCRSSQSLLHSTGYNSLEWYLQKPGQSPQLLIYLGSNRASGVPDRFSGSGSGTDFTLKISRVEAEDVGIYYCMQTLQTPITFGQGTRLEIKR
0.0627 nM	4.55e-05 s⁻¹	726000 M⁻¹ s⁻¹	PR005656 (antibody, human IgG1, kappa, V domains shown, PTM-removal variant of PR004290) VH: EVQLVESGGVLVQPGGSLRLSCAASGFTFSSYWMTWVRQAPGKGLEWVANIKQEGSEKYYVDSVKGRFTISRDNAKNSLFLQMNSLRAEDTAVYYCARTLIFDYWGQGTLVTVSS VL: DIVMTQSPLSLPVTPGEPASISCRSSQSLLHSTGYNSLEWYLQKPGQSPQLLIYLGSNRASGVPDRFSGSGSGTDFTLKISRVEAEDVGIYYCMQTLQTPITFGQGTRLEIKR
